# Biological target: RFP-tagged cargo selection complex (Vps35, Vps26, Vps29-RFP) (S. cerevisiae, UniProt P34110;P40335;P38759)
# Assay: recruitment to giant unilamellar vesicles
# Chain of RFP-tagged cargo selection complex (Vps35, Vps26, Vps29-RFP) (P34110 whole entry, chain 1 of 3): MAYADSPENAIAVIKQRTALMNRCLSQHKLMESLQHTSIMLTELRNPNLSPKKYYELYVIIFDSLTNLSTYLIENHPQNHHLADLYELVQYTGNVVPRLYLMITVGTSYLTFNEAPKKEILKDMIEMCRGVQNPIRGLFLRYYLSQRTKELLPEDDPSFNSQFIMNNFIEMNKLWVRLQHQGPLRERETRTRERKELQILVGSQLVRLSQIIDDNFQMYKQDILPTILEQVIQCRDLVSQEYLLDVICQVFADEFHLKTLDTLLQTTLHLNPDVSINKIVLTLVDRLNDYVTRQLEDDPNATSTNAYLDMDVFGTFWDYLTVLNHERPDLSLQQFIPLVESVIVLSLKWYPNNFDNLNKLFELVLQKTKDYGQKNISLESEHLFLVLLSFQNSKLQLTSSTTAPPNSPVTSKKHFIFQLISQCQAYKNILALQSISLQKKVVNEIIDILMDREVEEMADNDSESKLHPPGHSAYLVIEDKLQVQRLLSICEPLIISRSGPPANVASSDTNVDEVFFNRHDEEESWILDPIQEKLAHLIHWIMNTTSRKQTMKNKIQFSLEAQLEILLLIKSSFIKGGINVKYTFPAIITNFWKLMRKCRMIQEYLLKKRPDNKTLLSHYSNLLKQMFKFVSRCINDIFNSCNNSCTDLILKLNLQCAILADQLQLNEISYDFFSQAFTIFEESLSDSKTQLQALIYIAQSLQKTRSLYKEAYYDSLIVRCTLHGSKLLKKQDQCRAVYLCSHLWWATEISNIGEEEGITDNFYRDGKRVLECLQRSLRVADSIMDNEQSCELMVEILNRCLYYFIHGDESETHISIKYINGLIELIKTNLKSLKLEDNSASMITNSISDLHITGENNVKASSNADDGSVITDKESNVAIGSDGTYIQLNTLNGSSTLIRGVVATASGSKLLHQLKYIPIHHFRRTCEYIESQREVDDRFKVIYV
# Chain of RFP-tagged cargo selection complex (Vps35, Vps26, Vps29-RFP) (P40335 whole entry, chain 2 of 3): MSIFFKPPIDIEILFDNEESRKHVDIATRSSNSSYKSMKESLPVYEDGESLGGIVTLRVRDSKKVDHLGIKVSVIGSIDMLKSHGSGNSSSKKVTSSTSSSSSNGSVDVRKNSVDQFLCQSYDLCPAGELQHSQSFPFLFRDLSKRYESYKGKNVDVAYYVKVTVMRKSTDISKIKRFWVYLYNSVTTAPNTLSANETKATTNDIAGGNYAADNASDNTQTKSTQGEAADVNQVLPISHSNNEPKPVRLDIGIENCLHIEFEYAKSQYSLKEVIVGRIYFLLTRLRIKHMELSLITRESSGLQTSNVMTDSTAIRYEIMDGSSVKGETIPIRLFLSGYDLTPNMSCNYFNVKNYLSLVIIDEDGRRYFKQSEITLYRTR
# Chain of RFP-tagged cargo selection complex (Vps35, Vps26, Vps29-RFP) (P38759 whole entry, chain 3 of 3): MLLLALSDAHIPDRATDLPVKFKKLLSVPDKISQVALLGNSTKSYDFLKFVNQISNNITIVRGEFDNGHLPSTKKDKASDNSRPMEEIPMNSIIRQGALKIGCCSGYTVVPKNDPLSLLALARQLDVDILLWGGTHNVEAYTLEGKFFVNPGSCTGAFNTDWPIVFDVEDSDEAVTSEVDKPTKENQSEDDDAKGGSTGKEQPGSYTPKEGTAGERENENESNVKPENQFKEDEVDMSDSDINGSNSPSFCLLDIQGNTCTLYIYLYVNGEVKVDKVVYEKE
row,Binder,binding result
1,GFP-tagged SNX-BAR complex (Vps5-Vps17 heterodimer with Vps17-GFP) (complex) chain 1: MDYEDNLEAPVWDELNHEGDKTQSLVSNSIESIGQISTNEERKDNELLETTASFADKIDLDSAPEWKDPGLSVAGNPQLEEHDNSKADDLINSLAPEQDPIADLKNSTTQFIATRESGGALFTGNANSPLVFDDTIYDANTSPNTSKSISGRRSGKPRILFDSARAQRNSKRNHSLKAKRTTASDDTIKTPFTDPLKKAEKENEFVEEPLDDRNERRENNEGKFTASVEKNILEQVDRPLYNLPQTGANISSPAEVEENSEKFGKTKIGSKVPPTEKAVAFKVEVKDPVKVGELTSIHVEYTVISESSLLELKYAQVSRRYRDFRWLYRQLQNNHWGKVIPPPPEKQSVGSFKENFIENRRFQMESMLKKICQDPVLQKDKDFLLFLTSDDFSSESKKRAFLTGSGAINDSNDLSEVRISEIQLLGAEDAAEVLKNGGIDAESHKGFMSISFSSLPKYNEADEFFIEKKQKIDELEDNLKKLSKSLEMVDTSRNTLAASTEEFSSMVETLASLNVSEPNSELLNNFADVHKSIKSSLERSSLQETLTMGVMLDDYIRSLASVKAIFNQRSKLGYFLVVIENDMNKKHSQLGKLGQNIHSEKFREMRKEFQTLERRYNLTKKQWQAVGDKIKDEFQGFSTDKIREFRNGMEISLEAAIESQKECIELWETFYQTNL chain 2: MTSAVPYDPYDDLDNNPFAEPQEEDSEPAATTTDGSSSMSEERVGTEQTAASVQDNGTANNIQNGLGEEGNATRSKTSNEHNENQQPSQPSERVILPERSDEKKKYTLLAKVTGLERFGSATGKKENPTIIFDCSTNLPTFRKQQYKNVKKSYEEFHQLFKYLNVAIQESFVPTLPSAYTTFGINSEEDRMKVTRNFQLWFNRLSQDPLIIRNEEVAFFIESDFNTYTPINKSKSLASGLKRKTLKQLAPPYDEITELAEFRPLVKSIYVVSQSLQEKLLRVSRNRKMMVQEENAFGQDFVNLDEHNKLYRRYGKILTAVGDIDSIIATMDMATLYDGLEWIVRDAYAVKEALTNRHFIMRNLVQAQQNSKAKQEQARRFRSRRDINPMKIDEALRQLKAAAKNEQVLTLKLQRITSNMIIERKQWISWYEEWIRSSIKEFTLRKIEYERKKLTLLERVRSDIRKADENGGLSRLGRHAVSNNNSDTSQTLKGDSWTGESNRKSQIPINKIAHTEFDDELFTEDDGYNSQDSDTTSLNARHAASLLGMSTK,binds
2,SNX-BAR complex without GFP tag (Vps5-Vps17 heterodimer) (complex) chain 1: MDYEDNLEAPVWDELNHEGDKTQSLVSNSIESIGQISTNEERKDNELLETTASFADKIDLDSAPEWKDPGLSVAGNPQLEEHDNSKADDLINSLAPEQDPIADLKNSTTQFIATRESGGALFTGNANSPLVFDDTIYDANTSPNTSKSISGRRSGKPRILFDSARAQRNSKRNHSLKAKRTTASDDTIKTPFTDPLKKAEKENEFVEEPLDDRNERRENNEGKFTASVEKNILEQVDRPLYNLPQTGANISSPAEVEENSEKFGKTKIGSKVPPTEKAVAFKVEVKDPVKVGELTSIHVEYTVISESSLLELKYAQVSRRYRDFRWLYRQLQNNHWGKVIPPPPEKQSVGSFKENFIENRRFQMESMLKKICQDPVLQKDKDFLLFLTSDDFSSESKKRAFLTGSGAINDSNDLSEVRISEIQLLGAEDAAEVLKNGGIDAESHKGFMSISFSSLPKYNEADEFFIEKKQKIDELEDNLKKLSKSLEMVDTSRNTLAASTEEFSSMVETLASLNVSEPNSELLNNFADVHKSIKSSLERSSLQETLTMGVMLDDYIRSLASVKAIFNQRSKLGYFLVVIENDMNKKHSQLGKLGQNIHSEKFREMRKEFQTLERRYNLTKKQWQAVGDKIKDEFQGFSTDKIREFRNGMEISLEAAIESQKECIELWETFYQTNL chain 2: MTSAVPYDPYDDLDNNPFAEPQEEDSEPAATTTDGSSSMSEERVGTEQTAASVQDNGTANNIQNGLGEEGNATRSKTSNEHNENQQPSQPSERVILPERSDEKKKYTLLAKVTGLERFGSATGKKENPTIIFDCSTNLPTFRKQQYKNVKKSYEEFHQLFKYLNVAIQESFVPTLPSAYTTFGINSEEDRMKVTRNFQLWFNRLSQDPLIIRNEEVAFFIESDFNTYTPINKSKSLASGLKRKTLKQLAPPYDEITELAEFRPLVKSIYVVSQSLQEKLLRVSRNRKMMVQEENAFGQDFVNLDEHNKLYRRYGKILTAVGDIDSIIATMDMATLYDGLEWIVRDAYAVKEALTNRHFIMRNLVQAQQNSKAKQEQARRFRSRRDINPMKIDEALRQLKAAAKNEQVLTLKLQRITSNMIIERKQWISWYEEWIRSSIKEFTLRKIEYERKKLTLLERVRSDIRKADENGGLSRLGRHAVSNNNSDTSQTLKGDSWTGESNRKSQIPINKIAHTEFDDELFTEDDGYNSQDSDTTSLNARHAASLLGMSTK,binds
3,Snx3-mGFP (His-SUMO-Snx3-mGFP) (natural protein) MPREFKSFGSTEKSLLSKGHGEPSYSEIYAEPENFLEIEVHNPKTHIPNGMDSKGMFTDYEIICRTNLPSFHKRVSKVRRRYSDFEFFRKCLIKEISMLNHPKVMVPHLPGKILLSNRFSNEVIEERRQGLNTWMQSVAGHPLLQSGSKVLVRFIEAEKFVG,binds

# Reference: paper PMC6249844 (Molecular Biology of the Cell, 2018)
